Assay results taken from patent US20050089961A1 (NEUROMED PHARMACEUTICALS, published 2005).

Target: rat α1B+β1b calcium channel (N-type calcium channel) (rat, UniProt Q02294 1-2336; P54283 1-597)
Test: cell-based or functional assay

Chain of rat α1B+β1b calcium channel (N-type calcium channel) (Q02294 whole entry, chain 1 of 2): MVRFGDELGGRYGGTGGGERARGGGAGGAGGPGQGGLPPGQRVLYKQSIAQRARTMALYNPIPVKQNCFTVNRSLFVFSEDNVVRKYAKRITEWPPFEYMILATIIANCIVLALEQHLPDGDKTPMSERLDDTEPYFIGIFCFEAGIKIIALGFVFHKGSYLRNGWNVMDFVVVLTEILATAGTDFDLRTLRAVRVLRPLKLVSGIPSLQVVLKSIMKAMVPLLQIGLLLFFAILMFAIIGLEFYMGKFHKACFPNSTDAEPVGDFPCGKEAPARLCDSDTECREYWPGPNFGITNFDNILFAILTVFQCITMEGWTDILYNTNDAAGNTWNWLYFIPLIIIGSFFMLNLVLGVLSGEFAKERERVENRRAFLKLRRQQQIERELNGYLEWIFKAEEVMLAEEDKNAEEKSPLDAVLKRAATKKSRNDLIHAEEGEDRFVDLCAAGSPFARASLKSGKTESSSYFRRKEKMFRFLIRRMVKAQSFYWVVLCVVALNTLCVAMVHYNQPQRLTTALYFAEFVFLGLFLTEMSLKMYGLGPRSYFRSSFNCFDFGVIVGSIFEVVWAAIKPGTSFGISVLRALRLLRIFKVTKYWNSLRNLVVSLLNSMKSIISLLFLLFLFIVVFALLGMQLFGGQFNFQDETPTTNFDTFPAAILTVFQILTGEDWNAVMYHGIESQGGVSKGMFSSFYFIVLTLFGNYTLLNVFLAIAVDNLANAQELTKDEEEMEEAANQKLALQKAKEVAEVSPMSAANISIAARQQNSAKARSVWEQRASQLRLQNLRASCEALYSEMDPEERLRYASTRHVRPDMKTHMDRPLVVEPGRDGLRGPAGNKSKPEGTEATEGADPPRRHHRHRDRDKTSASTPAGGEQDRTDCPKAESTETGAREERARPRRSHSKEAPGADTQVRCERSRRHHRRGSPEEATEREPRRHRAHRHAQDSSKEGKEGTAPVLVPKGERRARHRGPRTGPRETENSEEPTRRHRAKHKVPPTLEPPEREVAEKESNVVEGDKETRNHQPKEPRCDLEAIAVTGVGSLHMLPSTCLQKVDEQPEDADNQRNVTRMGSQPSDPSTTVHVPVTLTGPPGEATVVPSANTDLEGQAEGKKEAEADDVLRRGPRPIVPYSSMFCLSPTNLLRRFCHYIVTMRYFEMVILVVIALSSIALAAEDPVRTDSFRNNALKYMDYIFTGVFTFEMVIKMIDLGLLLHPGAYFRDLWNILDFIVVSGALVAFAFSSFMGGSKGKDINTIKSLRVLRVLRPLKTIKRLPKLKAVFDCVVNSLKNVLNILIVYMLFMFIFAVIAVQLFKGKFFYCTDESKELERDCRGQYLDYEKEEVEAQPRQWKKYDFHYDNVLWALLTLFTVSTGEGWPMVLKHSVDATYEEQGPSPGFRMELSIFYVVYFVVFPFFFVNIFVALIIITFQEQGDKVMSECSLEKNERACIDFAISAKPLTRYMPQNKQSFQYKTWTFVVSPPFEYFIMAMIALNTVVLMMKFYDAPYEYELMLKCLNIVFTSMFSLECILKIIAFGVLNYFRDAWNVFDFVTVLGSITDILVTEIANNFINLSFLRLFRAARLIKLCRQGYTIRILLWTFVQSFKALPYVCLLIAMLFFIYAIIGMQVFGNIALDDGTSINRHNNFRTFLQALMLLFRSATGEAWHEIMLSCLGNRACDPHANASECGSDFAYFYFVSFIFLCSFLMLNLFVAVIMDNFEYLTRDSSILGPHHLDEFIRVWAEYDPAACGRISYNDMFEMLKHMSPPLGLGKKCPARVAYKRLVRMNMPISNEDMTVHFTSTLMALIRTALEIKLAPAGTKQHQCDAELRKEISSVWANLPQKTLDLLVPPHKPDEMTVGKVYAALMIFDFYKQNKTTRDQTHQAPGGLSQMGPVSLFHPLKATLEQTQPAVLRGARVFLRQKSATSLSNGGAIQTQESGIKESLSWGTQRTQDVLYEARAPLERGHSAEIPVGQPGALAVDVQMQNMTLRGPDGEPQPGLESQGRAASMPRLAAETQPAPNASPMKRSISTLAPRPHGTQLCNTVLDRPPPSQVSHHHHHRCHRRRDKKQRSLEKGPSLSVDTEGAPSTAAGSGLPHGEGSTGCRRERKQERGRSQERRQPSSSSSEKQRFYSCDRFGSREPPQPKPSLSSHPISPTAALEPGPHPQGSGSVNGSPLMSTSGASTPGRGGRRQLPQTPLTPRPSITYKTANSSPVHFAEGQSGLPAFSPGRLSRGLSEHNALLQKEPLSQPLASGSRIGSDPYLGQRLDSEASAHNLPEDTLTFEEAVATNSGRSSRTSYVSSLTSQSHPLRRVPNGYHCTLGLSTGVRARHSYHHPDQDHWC
Chain of rat α1B+β1b calcium channel (N-type calcium channel) (P54283 whole entry, chain 2 of 2): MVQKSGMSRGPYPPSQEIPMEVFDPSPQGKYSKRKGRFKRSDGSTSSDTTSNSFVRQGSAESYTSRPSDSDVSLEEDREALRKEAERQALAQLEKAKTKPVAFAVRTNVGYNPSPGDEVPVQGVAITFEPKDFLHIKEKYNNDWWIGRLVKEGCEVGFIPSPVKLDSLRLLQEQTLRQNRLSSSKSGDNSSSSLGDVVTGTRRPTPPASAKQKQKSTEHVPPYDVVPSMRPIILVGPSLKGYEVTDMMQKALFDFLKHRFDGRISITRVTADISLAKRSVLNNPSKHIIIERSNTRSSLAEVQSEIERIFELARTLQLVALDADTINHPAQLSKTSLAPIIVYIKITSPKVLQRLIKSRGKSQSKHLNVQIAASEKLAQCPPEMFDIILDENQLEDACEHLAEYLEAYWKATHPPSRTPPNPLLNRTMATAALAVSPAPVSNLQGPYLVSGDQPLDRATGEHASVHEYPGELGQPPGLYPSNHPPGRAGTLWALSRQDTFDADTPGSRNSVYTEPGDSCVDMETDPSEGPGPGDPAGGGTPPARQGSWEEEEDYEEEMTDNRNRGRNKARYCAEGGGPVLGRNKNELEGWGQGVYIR

B1: full-length chicken α2δ-1 calcium channel subunit (other)
chain: HSSEGPFPSPTTIKSWVDKMQEDLITLARTASGVEQLAAIYLKNKDLYTVEANNPRQLVEIAARDIEKLLSNRSKALVRLAKEAEKYQASHQWRDEFGNNDIIYYNAKDDQNDPEKNDTESGSQRIRPVFEEDPVFRRQTSYQHAAVHIPTDIYEGSTIVLNELNWTAALDDVFKRNREEDPTLLWQVFGSATGLARYYPASPWVDNSRTPNKIDLYDVRRRPWYIQGAASPKDMLILVDASGSVSGLTLKLIRTSVIEMLETLSDDDFVNVVSFNNNAQNVSCFNHLVQANVRNKKKLKEAVDKISAKGITDYKKGFSYAFEQLLNHSVSRANCNKIIMLFTDGGEERAQEIFHKYNEDKKVRVFTFSVGQHNYDKGPIQWMACENKGYYYEIPSIGAIRINTQEYLDVLGRPMVLAGEKAKQVQWTNVYLDALELGLVITGTLPVFNLTKEQNGKINQLILGVMGVDVSLEDIKKLTPRFTLCPNGYYFAIDPNGYVLLHPNLQPKNPKSQEPVTLDFLDAELENDIKVEIRKKMIDGESGEKTFETLVKSQDERYIDKGNRTYTWTAVNGTDYSLALVLPSYSFYYIKAKIEEPITQARLEIKKDSETLKIDHFDEAGYTFIAPREYCTDVKKSENNTEFLLNFNEFIDRNTPSSPSCNTDMVIRVLLDAGFTNELAQNYWSKLYLDGVVAQFVVTDGGITRVFPKRAGEDWLENAETYEVSFYKRSLDNDNYIFTAPYYNKSGANSYESGIMVSKAVEITINGKLLKPAVVGIKIDAMKWMENFTTTTIKSLCNSEICGCEKNSMHVDCVILDDGGFLLMSNRDEYTHQIGRFFGEIDPGLMRNLINMSLYAFNKSYDYQSVCDPEEEPKQGAGLRSAYVPTIADILQLGWWASAAAWSILQQLFLSLTFPRFLEAADMEDDDFSTALPKTSCITEQTQYFFENDDKSFIGIVDCINCSRLYHAEKISNTNLVFIISDSQLLCRSCDPKPLMQAEKPDEGPNPCEMVKQPRYRKGPDVCFDEAKQEDSADCGGASGLSPSLWSMVGIQLVLLWLLSGSRHYQL
current density (Ipeak/cell capacitance), whole-cell patch clamp, fold increase on coexpression: ~10 fold
